The source of these data is publication PMC2811071.

The data set addresses T1, raver1 RRM1 (human (Homo sapiens), UniProt Q8IY67 59-130).
T1 sequence: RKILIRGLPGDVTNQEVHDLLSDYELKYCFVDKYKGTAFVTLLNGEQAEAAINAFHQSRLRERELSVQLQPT
Put plainly: ITC. A general note: Isothermal titration calorimetry measures the heat released or taken up as one component is titrated into another.

Regarding UCAUGCAGUCUG (ssRNA) [vinculin mRNA 12-mer], the binding result is on record as “binds”.
